The target in data set [1] is T1, Atu1419 (Agrobacterium fabrum, UniProt A9CJ36).
T1 construct: theoretical monomer mass ~26542 Da; homotetramer; co-purified Zn2+
T1 sequence (A9CJ36 1-244): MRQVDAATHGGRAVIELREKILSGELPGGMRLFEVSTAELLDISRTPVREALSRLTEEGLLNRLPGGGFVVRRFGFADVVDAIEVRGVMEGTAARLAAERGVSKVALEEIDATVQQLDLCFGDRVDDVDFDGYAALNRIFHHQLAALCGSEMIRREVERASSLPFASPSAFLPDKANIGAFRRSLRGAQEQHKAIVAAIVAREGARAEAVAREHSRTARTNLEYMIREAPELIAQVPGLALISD
The data set can be described thus: isothermal titration calorimetry. The format is binding. (In general: Isothermal titration calorimetry measures the heat released or taken up as one component is titrated into another.)

In data set [2] the target is T1, Atu1419. The data set can be described thus: differential scanning calorimetry. It is filed as binding. The note with it: 10 µM protein, 100 µM MEF, 1 K/min; absolute Tm with ligand, apo reference Tm 52.6 °C.
The target of data set [3] is T2, Atu1419 (Agrobacterium fabrum C58) (UniProt A9CJ36).
T2 sequence: T1 sequence (A9CJ36 1-244)
Nature of the data set: EMSA. The note with it: EMSA: 50 mM Tris-HCl pH 8, 150 mM NaCl, 30 nM DNA, 30 min at room temperature; gel 6% or 12% PAGE in TBE at 4 C.

Data set [4] has as its target T3, Atu1419 (Agrobacterium fabrum C58, UniProt A9CJ36 1-244).
T3 sequence: T1 sequence (A9CJ36 1-244)
The data set can be described thus: X-ray crystallography; Zn2+, citrate (orientation B); EMSA: 50 mM Tris-HCl pH 8, 150 mM NaCl, 30 nM DNA, 30 min at room temperature; gel 6% or 12% PAGE in TBE at 4 C. Particulars: protein: recombinant; tags: C-terminal 6xHis; chain copies: 4; blunt; self-complementary, 2 strand copies. (In general: In EMSA bound probe runs differently from free probe, usually more slowly.)

Data set [5] deals with the molecule itself. Nature of the data set: SEC + SEC-MALS; apo Atu1419 at 25 uM; Superdex 200 10/300 GL; 50 mM Tris pH 8, 150 mM NaCl. Background: Size exclusion chromatography separates by hydrodynamic size, large species first.
Data set [6] concerns the molecule itself. Nature of the data set: not stated; oligomeric state of purified Atu1419-H3A; method not given.

The text below walks through data of paper PMC7797058, “Characterization of the first tetrameric transcription factor of the GntR superfamily with allosteric regulation from the bacterial pathogen Agrobacterium fabrum” (Nucleic Acids Research, 2020).

Changes are numbered by the printed parent chain. Numbers in names are those of the source.

On to `Nc1nc2c(c(=O)[nH]1)N1CN(c3ccc(C(=O)N[C@@H](CCC(=O)O)C(=O)O)cc3)C[C@H]1CN2` [MEF, N5,N10-methylenetetrahydrofolate], for which the Kd on Atu1419 [1] is roughly 20 µM. In addition, the Tm at Atu1419 [2] was 63.5 °C.
As for “AAGCGCCTGAACTGATTGCGCAGGTTCCGGGTCTCGCACTCATCAGCGACTAAGCGGCGGAAATCGCTGCAAATCCAGGGGTGGCGCCTTTTGGCGCCGCCTTTATTTTTGTCGACACCCTCCCTGACGCGGTAATTTTGCGCTTGCAATTTATCAAAGCACAGCGTTTCATGTATACATAGATGCGATTGCCAGGGAGGAGATGACAATGGCAAATTCCAGTCTGACCGAGGTTTTGAAGCAATATCCGAACCCCGTTGAAATGCTC (double strand) [Patu1420]”, in data set [3], the binding result is reported as “binds”.
“GGTGGGACTGGTCAAACAACACGGCACCCTCGCGCCATGCGGCCTGCTCGGAACGCCAGTTGCTGAACTCACCGGCGACAACCGGGTATACATACATTCCGATTTTTGAGTTGCGGAGCATTTCAACGGGGTTCGGATATTGCTTCAAAACCTCGGTCAGACTGGAATTTGCCATTGTCATCTCCTCCCT (double strand) [P2-atu1420]”: the binding result in data set [3] is “binds”.

B1: 10-mer palindrome (dsDNA)
DNA 1: ATGTATACAT
DNA 2: ATGTATACAT
Take B1: in the data set with Atu1419 [4], the binding result is listed as “binds”.

B2: Atu1419 transcriptional regulator (GntR superfamily, VanR group) of Agrobacterium fabrum (natural protein, UniProt A9CJ36 1-244, looked up)
chain: T1 sequence (A9CJ36 1-244)
notes: Atu1419, GntR-type transcriptional repressor of the SpG8-1b region, Agrobacterium fabrum C58; theoretical molecular weight about 26 542 Da for a monomer; Co-purifies with one Zn2+ ion per subunit; also called apo Atu1419; wild-type Atu1419; source: E. coli BL21, pET-20b, purified (His-Trap HP, Superdex 200 gel filtration)
Take B2: in data set [5], the “stoichiometry N” value was determined as 4.

B3: Atu1419-H3A mutant (H192A, H141A and H214A) (natural protein)
chain: T1 sequence (A9CJ36 1-244) with H141A, H192A, H214A
notes: The PDB entries are of the wild-type parent; the mutant could not be crystallised; also called triple point mutant; source: E. coli BL21, synthetic gene (Genscript) in pET-20b, expressed and purified as the wild-type protein
B3: the “stoichiometry N” value in data set [6] came out at 4.

What is called Kd is the equilibrium constant for the complex coming apart. The stoichiometry N is the number of molecules, sites or subunits per partner or assembly.
